# Assay results as given in US10870691B2, “Antibodies and fragments thereof that bind hepatitis B virus protein X” (priority 2018, dated 2020).
# Read-outs that look alike come from different tables or passages of the source. Ends that are not written are not given here.
# What was measured:
# HBV = assay: Extracellular HBV DNA quantification (qPCR) in HBV-infected PHH; assay type: cell-based, HBV genotype D in primary human hepatocytes; details: siRNA 25 nM transfected or ETV treatment from day 6 post-infection (FIGS. 8A, 9A, 10A)
# Protocol: PHH were infected with HBV or HBVΔX (1000 genomic equivalents/cell) or transduced with lentiviruses as described previously (Niu, et al., PLoS One (2017) 12:e0169648).
# (§1) siRNA transfections were performed using Lipofectamine RNAiMax.
# Extracellular HBeAg and HBV DNA were measured as previously described (Niu, et al., PLoS One (2017) 12:e0169648, 29). HBeAg levels were measured by enzyme-linked immunosorbent assay or electrochemiluminescence assay (Meso Scale Discovery, Rockville, Md.). Extracellular HBV DNA was purified from cell-culture medium using a DNeasy 96 Blood & Tissue Kit (Qiagen) and quantified by qPCR on a QuantStudio 7 Flex Real-Time PCR System (ThermoFisher Scientific) using primers and a probe designed to the HBx region of the HBV genome; forward primer: 5′-CCGTCTGTGCCTTCTCATCTG-3′; reverse primer: 5′-AGT CCA AGA GTY CTC TTA TGY AAG ACC TT-3′; probe: 5′/56-FAM/CCG TGT GCA/ZEN/CTT CGC TTC ACC TCT GC/3IABkFQ/3′. HBV DNA levels were normalized to β-actin.
# Smc6 = assay: Confocal microscopy of Smc6 in HBV-infected PHH after treatment; assay type: cell-based, human; details: confocal microscopy (FIGS. 8B, 10B)
# Protocol: as §1
# HBx [1] = details: HBV-infected PHH, confocal microscopy (FIGS. 8B, 9B, 10B)
# [2] = Mouse immunization with peptide-BSA conjugate; assay type: in vivo; details: 10 μg peptide-BSA conjugate plus 1 μg adjuvant, biweekly injections, CD-1 mice
# Protocol: (§3) Two of these HBx peptides were individually conjugated to BSA and three NZB/W, three CD-1, and three BALB/c mice were immunized with 10 μg peptide-BSA conjugate plus 1 μg adjuvant (ALD and MDP in a 1:1 ratio). Biweekly injections were performed using a “rapid” immunization protocol developed by Antibody Solutions. […] The top 50 candidates were further evaluated by confocal imaging of HBV-infected PHH.
# HBx27-50 peptide = HBx27-50 peptide (Hepatitis B virus genotype D subtype ayw, UniProt P03165); details: 100 ng/mL antibody, varying concentrations of HBx peptide
# Protocol: (§2) Antibody candidates were screened by ELISA. Briefly, sulfhydryl plates were coated with 36 ng/mL recombinant HBx-DDB1 fusion protein, blocked and then incubated with 50 μL of undiluted hybridoma supernatant. Signal was detected colorimetrically with a goat anti-mouse-HRP antibody (Jackson Immuno Research, West Grove, Pa.) and incubation with TMB substrate solution (MossBio, Pasadena, Mass.). Signal strength was measured as absorbance at 450 nm. ELISA profiling of mAbs was performed using 100 ng/mL antibody with varying concentrations of recombinant HBx-DDB1 fusion protein or HBx peptide.
# HBx69-87 peptide = HBx69-87 peptide (Hepatitis B virus genotype D subtype ayw, UniProt P03165); details: 100 ng/mL antibody, varying concentrations of HBx peptide
# Protocol: as §2
# [3] = test system: recombinant HBx-DDB1 fusion protein; assay: HBx ELISA, binding to recombinant HBx-DDB1 fusion protein; design: species or system HBV; details: 100 ng/mL antibody, varying concentrations of fusion protein
# Protocol: Mouse monoclonal anti-HBx antibodies were developed by Antibody Solutions (Sunnyvale, Calif.). Antibody candidates were screened by enzyme-linked immunosorbent assay (ELISA) using recombinant HBx-DDB1 fusion protein and then by confocal microscopy on HBV infected PHH.
# Antibody candidates were screened by ELISA. […] Signal strength was measured as absorbance at 450 nm.
# HBx [4] = details: for detection of HBx by Western blot in PHH transduced with Myc-HBx lentivirus: Myc-tagged HBx genotype D, lysates day 3 post-transduction; for HBx genotype recognized by Western blot: PHH transduced with lentiviruses expressing HBx genotype A-E; for detection of HBx by Western blot in HBV-infected PHH: lysates day 4 post-infection
# Protocol: For Western blotting experiments, PHH were transduced with Myc-HBx-expressing lentivirus or were infected with wild-type HBV, HBx-negative HBV (HBVΔX), or were mock-infected.
# Western blotting was performed as previously described (Decorsière, et al., Nature (2016) 531:386-389). Briefly, PHH were transduced with a lentivirus expressing 3xMyc-HBx (HBV genotype A, B, C, D or E) or infected with wild-type HBV, HBVΔX, or mock-infected. On the indicated day post-transduction or post-infection, lysates were collected by adding 0.25 mL 1× cell lysis buffer (Cell Signaling) combined with protease inhibitor cocktail (ThermoFisher Scientific) and scraping to remove the cells from the plates. Membranes were probed with 1:250 diluted mouse monoclonal anti-Smc6 (Abgent), 1:1000 diluted mouse monoclonal c-Myc (LifeSpan Biosciences), 1:250 diluted mouse monoclonal anti-HBx mAb (15 μg/mL final concentration), and 1:2000 diluted rabbit monoclonal anti-GAPDH (Cell Signaling). IRDye 680RD goat anti-rabbit or IRDye 800CW goat anti-mouse IgG (LI-COR, Lincoln, Nebr.) at a 1:5000 dilution were used as secondary antibodies. Blots were visualized using an Odyssey Infrared Imaging System (LI-COR).
# HBx [5] = target: HBx (Hepatitis B virus genotype D subtype ayw, UniProt P03165); details: top 50 candidates, HBV-infected PHH
# Chain of HBx (Hepatitis B virus genotype D subtype ayw, UniProt P03165) (P03165 whole entry): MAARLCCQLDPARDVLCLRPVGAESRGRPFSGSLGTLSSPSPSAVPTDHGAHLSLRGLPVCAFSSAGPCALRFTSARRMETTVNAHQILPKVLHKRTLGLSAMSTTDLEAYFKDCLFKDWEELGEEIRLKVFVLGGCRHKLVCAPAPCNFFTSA
# Protocol: as §3
molecule,measurement,setting,value
"C=C1[C@H](CO)[C@@H](O)C[C@@H]1n1cnc2c(=O)[nH]c(N)nc21 [ETV, entecavir]",extracellular HBV DNA levels,HBV,significantly reduced
same,change in percentage of Smc6-positive cells,Smc6,Neither ETV nor siCtrl significantly reduced the percentage of HBx-positive cells or increased the percentage of Smc6-positive cells
same,change in percentage of HBx-positive cells,HBx [1],Neither ETV nor siCtrl significantly reduced
"HBx27-50: HBx AD38 (genotype D) residue 27-50 peptide, conjugated to BSA for immunization (GRPFSGSLGTLSSPSPSAVPTDHG; also: conjugated to BSA)",immunogenicity of peptide-BSA conjugate,[2],immunogenic
"HBx M19: mouse monoclonal antibody against HBx; heavy chain SEQ ID NO: 27, light chain SEQ ID NO: 30 (Table 1) (antibody) heavy: EVQLQQSGPELVKPGASVKISCQASGYTFTDYYMNWVKQSHGKRLEWIGDINPNNGGTAYNQKFKGKATLTVDRSSSTAYMEVRSLTSEDSAVYFCALLAYWGQGTLVTVSAAKTTPPSVYPLAPGSAAQTNSMVTLGCLVKGYFPEPVTVTWNSGSLSSGVHTFPAVLQSDLYTLSSSVTVPSSTWPSQTVTCNVAHPASSTKVDKKIVPRDCGCKPCICTVPEVSSVFIFPPKPKDVLTITLTPKVTCVVVDISKDDPEVQFSWFVDDVEVHTAQTKPREEQINSTFRSVSELPIMHQDWLNGKEFKCRVNSAAFPAPIEKTISKTKGRPKAPQVYTIPPPKEQMAKDKVSLTCMITNFFPEDITVEWQWNGQPAENYKNTQPIMDTDGSYFVYSKLNVQKSNWEAGNTFTCSVLHEGLHNHHTEKSLSHSPGK light: DVVMTQTPLSLPVSLGDQASISCRSSQSLVYSDGNTHLHWYLQKTGQSPKLLIYKASNRFSGVPDRFSGSGSGTDFTLKISRVEAEDLGVYFCSQSTHVPLTFGAGTKLELKRADAAPTVSIFPPSSEQLTSGGASVVCFLNNFYPKDINVKWKIDGSERQNGVLNSWTDQDSKDSTYSMSSTLTLTKDEYERHNSYTCEATHKTSTSPIVKSFNRGEC",binding to HBx27-50 peptide by ELISA,HBx27-50 peptide,potently bound
same,binding to HBx69-87 control peptide by ELISA,HBx69-87 peptide,did not bind
same,binding to recombinant HBx-DDB1 fusion protein by ELISA,[3],bound
same,detection of HBx by Western blot in PHH transduced with Myc-HBx lentivirus,HBx [4]; listed as HBx mAb,detected a 17 kDa protein
same,detection of HBx by Western blot in PHH transduced with Myc-HBx lentivirus,HBx [4]; listed as αHBx mAb,detected
same,HBx genotype recognized by Western blot,HBx [4]; listed as HBx mAb,primarily recognizes genotype D HBx
same,HBx genotype recognized by Western blot,HBx [4]; listed as anti-HBx mAb,selective for genotype D HBx
same,sensitivity in Western blot analysis versus the other mAb,HBx [4]; lentivirus-expressed HBx in PHH,superior sensitivity
same,detection of HBx by Western blot in HBV-infected PHH,HBx [4]; listed as HBx mAb,detects a 17 kDa band
same,detection of HBx by Western blot in HBV-infected PHH,HBx [4]; listed as anti-HBx mAb,able to detect physiologically relevant levels of HBx protein
same,detection of HBx by Western blot in HBV-infected PHH,HBx [4]; listed as αHBx mAb,detected
same,selectivity and sensitivity of hybridoma clones by confocal imaging,HBx [5],most selective and sensitive
